Experimental data from paper PMC8803338.

Molecular target: sarcomeric α-Actin (ACTC1) (mouse (endogenous in heart)) (UniProt P68033)
Experiment: co-IP; heart lysates of CTL and α-MHC-cre DKO mice, mouse anti-α-Actin, Protein A/G beads, Western blot, densitometry (n = 4)

Substance: sarcomeric α-Actinin (ACTN) (from UniProt Q9JI91 1-894) (natural protein)
- fold change of ACTN co-precipitated with ACTC1, α-MHC-cre DKO hearts against CTL hearts: 0.63 fold
